Source: publication PMC7481392, “Identification of MltG as a Prc Protease Substrate Whose Dysregulation Contributes to the Conditional Growth Defect of Prc-Deficient Escherichia coli” (Frontiers in Microbiology, 2020)
Numbering of substitutions follows the chain as printed.

T1: K455A-Prc, catalytically inactive Prc mutant, C-terminally His6-tagged (E. coli, UniProt P23865 23-682, K455A, Dylight 549 NHS ester on amines (array assay only))
T1 construct: Prc (Tsp), periplasmic protease of Escherichia coli, with K455A; encoded on pTR163 (Spiers et al., 2002); The same construct was used purified and labelled on the array, and unlabelled in lysate for the co-IP; source: E. coli DH5α harboring pTR163, purified (Ni-NTA); E. coli ΔmltG-BW25113 harboring pTR163, in lysate; not shown: His6, C-terminal, kept
T1 sequence (looked up): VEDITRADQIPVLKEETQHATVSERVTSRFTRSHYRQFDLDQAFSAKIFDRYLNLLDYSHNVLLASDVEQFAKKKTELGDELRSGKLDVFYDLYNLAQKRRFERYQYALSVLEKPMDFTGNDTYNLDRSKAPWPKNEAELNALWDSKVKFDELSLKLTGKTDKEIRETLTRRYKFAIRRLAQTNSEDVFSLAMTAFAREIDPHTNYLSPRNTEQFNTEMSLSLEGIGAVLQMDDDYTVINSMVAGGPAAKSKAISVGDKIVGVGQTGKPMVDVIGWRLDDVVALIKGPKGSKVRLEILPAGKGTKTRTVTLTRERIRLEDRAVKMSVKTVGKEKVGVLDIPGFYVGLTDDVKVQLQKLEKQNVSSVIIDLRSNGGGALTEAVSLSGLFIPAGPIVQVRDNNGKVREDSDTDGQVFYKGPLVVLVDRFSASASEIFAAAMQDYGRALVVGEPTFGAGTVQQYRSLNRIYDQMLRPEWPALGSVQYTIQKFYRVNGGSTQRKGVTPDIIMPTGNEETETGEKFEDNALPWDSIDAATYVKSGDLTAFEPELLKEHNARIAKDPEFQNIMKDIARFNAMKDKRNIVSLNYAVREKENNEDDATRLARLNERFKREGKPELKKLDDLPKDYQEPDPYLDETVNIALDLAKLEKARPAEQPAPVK

T2: Prc protease (wild type), C-terminally His6-tagged (E. coli, UniProt P23865 23-682, Dylight 549 NHS ester on amines)
T2 construct: Prc (Tsp), periplasmic protease of Escherichia coli, 76 kDa; encoded on pTR147 (Spiers et al., 2002); also called Tsp; Prc (WT); source: E. coli DH5α harboring pTR147, purified (Ni-NTA)
T2 sequence (looked up): T1 sequence (looked up) with A455K

B1: YacF, N-terminally 6xHis-tagged, from the ASKA ORF library (on the proteome array) (natural protein, E. coli K12, UniProt P36680 1-247, looked up)
chain: MQTQVLFEHPLNEKMRTWLRIEFLIQQLTVNLPIVDHAGALHFFRNVSELLDVFERGEVRTELLKELDRQQRKLQTWIGVPGVDQSRIEALIQQLKAAGSVLISAPRIGQFLREDRLIALVRQRLSIPGGCCSFDLPTLHIWLHLPQAQRDSQVETWIASLNPLTQALTMVLDLIRQSAPFRKQTSLNGFYQDNGGDADLLRLNLSLDSQLYPQISGHKSRFAIRFMPLDTENGQVPERLDFELACC
notes: YacF (ZapD), cell division protein, E. coli K12; ORF clone of the ASKA library; also called ZapD; source: E. coli, ASKA library clone, purified (Ni-NTA, high-throughput)
B2: YegV, N-terminally 6xHis-tagged, from the ASKA ORF library (on the proteome array) (natural protein, E. coli K12, UniProt P76419 1-321, looked up)
chain: MSGARLHTLLPELTTRQSVMVVGAAVIDVIADAYALPWRGCDIELKQQSVNVGGCALNIAVALKRLGIEAGNALPLGQGVWAEMIRNRMAKEGLISLIDNAEGDNGWCLALVEPDGERTFMSFSGVENQWNRQWLARLTVAPGSLLYFSGYQLASPCGELLVEWLEELQDVTPFIDFGPRIGDIPDALLARIMACRPLVSLNRQEAEIAAERFALSAEITTLGKQWQEKFAAPLIVRLDKEGAWYFSNDASGCIPAFPTQVVDTIGAGDSHAGGVLAGLASGLPLADAVLLGNAVASWVVGHRGGDCAPTREELLLAHKNV
notes: YegV, putative sugar kinase, E. coli K12; ORF clone of the ASKA library; source: E. coli, ASKA library clone, purified (Ni-NTA, high-throughput)
B3: TyrA, N-terminally 6xHis-tagged, from the ASKA ORF library (on the proteome array) (natural protein)
chain: not shown
notes: TyrA, fused chorismate mutase/prephenate dehydrogenase, E. coli K12; ORF clone of the ASKA library; source: E. coli, ASKA library clone, purified (Ni-NTA, high-throughput)
B4: YaaW, N-terminally 6xHis-tagged, from the ASKA ORF library (on the proteome array) (natural protein, E. coli K12, UniProt P75617 1-237, looked up)
chain: MNVNYLNDSDLDFLQHCSEEQLANFARLLTHNEKGKTRLSSVLMRNELFKSMEGHPEQHRRNWQLIAGELQHFGGDSIANKLRGHGKLYRAILLDVSKRLKLKADKEMSTFEIEQQLLEQFLRNTWKKMDEEHKQEFLHAVDARVNELEELLPLLMKDKLLAKGVSHLLSSQLTRILRTHAAMSVLGHGLLRGAGLGGPVGAALNGVKAVSGSAYRVTIPAVLQIACLRRMVSATQV
notes: YaaW, function E. coli K12; ORF clone of the ASKA library; source: E. coli, ASKA library clone, purified (Ni-NTA, high-throughput)
B5: YfaU, N-terminally 6xHis-tagged, from the ASKA ORF library (on the proteome array) (natural protein, E. coli K12, UniProt P76469 1-267, looked up)
chain: MNALLSNPFKERLRKGEVQIGLWLSSTTAYMAEIAATSGYDWLLIDGEHAPNTIQDLYHQLQAVAPYASQPVIRPVEGSKPLIKQVLDIGAQTLLIPMVDTAEQARQVVSATRYPPYGERGVGASVARAARWGRIENYMAQVNDSLCLLVQVESKTALDNLDEILDVEGIDGVFIGPADLSASLGYPDNAGHPEVQRIIETSIRRIRAAGKAAGFLAVAPDMAQQCLAWGANFVAVGVDTMLYSDALDQRLAMFKSGKNGPRIKGSY
notes: YfaU (RhmA), 2-keto-3-deoxy-L-rhamnonate aldolase, E. coli K12; ORF clone of the ASKA library; also called RhmA; source: E. coli, ASKA library clone, purified (Ni-NTA, high-throughput)
B6: YidA, N-terminally 6xHis-tagged, from the ASKA ORF library (on the proteome array) (natural protein, E. coli K12, UniProt P0A8Y5 1-270, looked up)
chain: MAIKLIAIDMDGTLLLPDHTISPAVKNAIAAARARGVNVVLTTGRPYAGVHNYLKELHMEQPGDYCITYNGALVQKAADGSTVAQTALSYDDYRFLEKLSREVGSHFHALDRTTLYTANRDISYYTVHESFVATIPLVFCEAEKMDPNTQFLKVMMIDEPAILDQAIARIPQEVKEKYTVLKSAPYFLEILDKRVNKGTGVKSLADVLGIKPEEIMAIGDQENDIAMIEYAGVGVAMDNAIPSVKEVANFVTKSNLEDGVAFAIEKYVLN
notes: YidA, sugar phosphatase, E. coli K12; ORF clone of the ASKA library; source: E. coli, ASKA library clone, purified (Ni-NTA, high-throughput)
B7: HupA, N-terminally 6xHis-tagged, from the ASKA ORF library (on the proteome array) (natural protein, E. coli K12, UniProt P0ACF0 1-90, looked up)
chain: MNKTQLIDVIAEKAELSKTQAKAALESTLAAITESLKEGDAVQLVGFGTFKVNHRAERTGRNPQTGKEIKIAAANVPAFVSGKALKDAVK
notes: ORF clone of the ASKA library; source: E. coli, ASKA library clone, purified (Ni-NTA, high-throughput)
B8: RfaD, N-terminally 6xHis-tagged, from the ASKA ORF library (on the proteome array) (natural protein, E. coli K12, UniProt P67910 1-310, looked up)
chain: MIIVTGGAGFIGSNIVKALNDKGITDILVVDNLKDGTKFVNLVDLNIADYMDKEDFLIQIMAGEEFGDVEAIFHEGACSSTTEWDGKYMMDNNYQYSKELLHYCLEREIPFLYASSAATYGGRTSDFIESREYEKPLNVYGYSKFLFDEYVRQILPEANSQIVGFRYFNVYGPREGHKGSMASVAFHLNTQLNNGESPKLFEGSENFKRDFVYVGDVADVNLWFLENGVSGIFNLGTGRAESFQAVADATLAYHKKGQIEYIPFPDKLKGRYQAFTQADLTNLRAAGYDKPFKTVAEGVTEYMAWLNRDA
notes: RfaD, ADP-L-glycero-D-manno-heptose-6-epimerase, E. coli K12; ORF clone of the ASKA library; source: E. coli, ASKA library clone, purified (Ni-NTA, high-throughput)
B9: YdhS, N-terminally 6xHis-tagged, from the ASKA ORF library (on the proteome array) (natural protein, E. coli K12, UniProt P77148 1-534, looked up)
chain: MKKIAIVGAGPTGIYTLFSLLQQQTPLSISIFEQADEAGVGMPYSDEENSKMMLANIASIEIPPIYCTYLEWLQKQEDSHLQRYGVKKETLHDRQFLPRILLGEYFRDQFLRLVDQARQQKFAVAVYESCQVTDLQITNAGVMLATNQDLPSETFDLAVIATGHVWPDEEEATRTYFPSPWSGLMEAKVDACNVGIMGTSLSGLDAAMAVAIQHGSFIEDDKQHVVFHRDNASEKLNITLLSRTGILPEADFYCPIPYEPLHIVTDQALNAEIQKGEEGLLDRVFRLIVEEIKFADPDWSQRIALESLNVDSFAQAWFAERKQRDPFDWAEKNLQEVERNKREKHTVPWRYVILRLHEAVQEIVPHLNEHDHKRFSKGLARVFIDNYAAIPSESIRRLLALREAGIIHILALGEDYKMEINESRTVLKTEDNSYSFDVFIDARGQRPLKVKDIPFPGLREQLQKTGDEIPDVGEDYTLQQPEDIRGRVAFGALPWLMHDQPFVQGLTACAEIGEAMARAVVKPASRARRRLSFD
notes: YdhS, function E. coli K12; ORF clone of the ASKA library; source: E. coli, ASKA library clone, purified (Ni-NTA, high-throughput)

The binders below were run against T1, K455A-Prc, catalytically inactive Prc … (assay: peptide or protein array; E. coli K12 proteome array (N-terminally His6-tagged ASKA proteins spotted in duplicate on slides), blocked with 1% BSA in TBS, probed with 1 μM Dylight 549-labelled Prc variant in PBS pH 7.4 with 1% BSA, RT, 1 h; washed with TBS-T; triplicate). Settings: both partners purified.
B1: binds.
B2: binds.
B3: binds.
B4: binds.
B5: binds.
B6: binds.

The binders below were run against T2, Prc protease (wild type), C-terminally … in the same assay as above. Settings: both partners purified.
B7: binds.
B8: binds.
B4: binds.
B5: binds.
B9: binds.
B6: binds.
